Patent US20260242458A1 (NOVAROCK BIOTHERAPEUTICS, published 2026)

T1: recombinant mouse IL-25 protein (mouse, UniProt Q8VHH8 17-169)
T1 construct: Bought (Sino Biological Inc, catalog no: 50138-M07H)
T1 sequence: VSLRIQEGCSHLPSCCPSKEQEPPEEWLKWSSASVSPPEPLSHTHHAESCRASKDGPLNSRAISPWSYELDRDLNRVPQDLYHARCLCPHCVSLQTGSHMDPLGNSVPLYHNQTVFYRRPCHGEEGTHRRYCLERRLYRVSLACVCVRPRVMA

T2: recombinant cynomolgus IL-25 protein (cynomolgus monkey, UniProt Q9H293 33-177 (human entry), limits assumed)
T2 construct: Bought (Sino Biological Inc, customized order); also called cyno IL-25
T2 chain: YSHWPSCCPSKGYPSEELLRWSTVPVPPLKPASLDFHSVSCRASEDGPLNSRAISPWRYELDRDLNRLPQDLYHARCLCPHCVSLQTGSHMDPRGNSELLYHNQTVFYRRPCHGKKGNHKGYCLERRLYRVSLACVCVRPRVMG

T3: recombinant human IL-25 protein (human, UniProt Q9H293 33-177)
T3 construct: Bought (Acro, catalog no: IL5-H4221) for ELISA; also called hIL-25; IL-17E
T3 sequence: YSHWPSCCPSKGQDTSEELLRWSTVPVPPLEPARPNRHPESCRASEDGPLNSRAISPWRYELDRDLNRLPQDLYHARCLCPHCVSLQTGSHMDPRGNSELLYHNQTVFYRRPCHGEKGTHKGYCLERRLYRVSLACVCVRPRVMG


How the values were obtained:
[1] = biological target: T1, recombinant mouse IL-25 protein; assay: ELISA, IL-25 coated, goat anti-human kappa light chain-HRP detection
Method: (§1) In this study, the ability of three humanized anti-IL-25 antibodies generated in hIgG1 (IL25Ab6 to Ab8) and hIgG1 YTE formats (IL25Ab9 to Ab11) binding to both human, mouse and cynomolgus IL-25 was evaluated using ELISA. Briefly, recombinant human IL-25 protein (Acro, catalog no: IL5-H4221, lot no: 401-20CNF1-UT), recombinant mouse IL-25 protein (Sino Biological Inc, catalog no: 50138-M07H, lot no: LC15AP0607) or recombinant cynomolgus IL-25 protein (Sino Biological Inc, catalog no: customized order, lot no: MB17MA2715) was directly coated to ELISA plates, respectively. Recombinant antibodies were then added to the plates followed by detection using goat-anti-human Kappa Light Chain antibody HRP (Novus, catalog no: NBP1-75064, Lot no: 68-188-010920). After the addition of ABTS (Moss Inc., catalog no: ABTS-1000, Lot no: 03086202) substrate, ELISA plates were read using an ELISA plate reader (Bioteck).

[2] = biological target: T2, recombinant cynomolgus IL-25 protein; assay: as above
Method: as §1

[3] = biological target: T3, recombinant human IL-25 protein; assay: as above
Method: as §1

[4] = biological target: T3, recombinant human IL-25 protein; assay: cell-based or functional assay
[5] = biological target: T3, recombinant human IL-25 protein; assay: cell-based or functional assay; remark: listed apart in the source
[6] = biological target: T3, recombinant human IL-25 protein; assay: cell-based or functional assay; remark: listed apart in the source
[7] = biological target: T3, recombinant human IL-25 protein; assay: BLI, Fab; species of IL-25 not stated, taken as human

Row | EC50 [1] [nM] | EC50 [2] [nM] | EC50 [3] [nM] | IC50, IL-25 induced CXCL1 production in HT-29 cells [4] [nM] | IC50, IL-25 induced IL-5 production in human PBMC [5] [nM] | IC50, IL-25 induced NF-kB signaling (SEAP) in HEK-Blue IL-17 reporter cells [6] [nM] | Kd [7] [nM] | koff [7] [s⁻¹] | kon [7] [M⁻¹ s⁻¹] | Binder
1 | 0.243 | 0.245 | 0.327 | 0.183 | 0.85 | 0.042 |  |  |  | IL25Ab7 (antibody, IgG1, V domains shown) VH: QVQLVQSGAEVKKPGASVKVSCKASGYSFTGYTMNWVRQAPGQGLEWMGLINPDNGGTSYKQKFQGRVTMTVDKSISTAYMELSRLRSDDTAVYYCAREGYYGPSPFHHYAMDYWGQGTLVTVSS VL: DIQMTQSPSSLSASVGDRVTITCQASQDISNYLNWYQQKPDGTIKLLIYYTSTLHTGVPSRFSGSGSGTDYTFTISSLQPEDIATYYCQQYSKLPYTFGQGTKLEIK
2 |  |  |  |  |  |  | 1.8 | 0.00029 | 161000 | IL25Ab7 Fab (Fab, V domains shown, VH/VL assigned as for IL25Ab7) VH: QVQLVQSGAEVKKPGASVKVSCKASGYSFTGYTMNWVRQAPGQGLEWMGLINPDNGGTSYKQKFQGRVTMTVDKSISTAYMELSRLRSDDTAVYYCAREGYYGPSPFHHYAMDYWGQGTLVTVSS VL: DIQMTQSPSSLSASVGDRVTITCQASQDISNYLNWYQQKPDGTIKLLIYYTSTLHTGVPSRFSGSGSGTDYTFTISSLQPEDIATYYCQQYSKLPYTFGQGTKLEIK
3 | 0.284 | 0.266 | 0.364 | 0.198 | 1.43 | 0.052 |  |  |  | IL25Ab10 (antibody, V domains shown) VH: QVQLVQSGAEVKKPGASVKVSCKASGYSFTGYTMNWVRQAPGQGLEWMGLINPDNGGTSYKQKFQGRVTMTVDKSISTAYMELSRLRSDDTAVYYCAREGYYGPSPFHHYAMDYWGQGTLVTVSS VL: DIQMTQSPSSLSASVGDRVTITCQASQDISNYLNWYQQKPDGTIKLLIYYTSTLHTGVPSRFSGSGSGTDYTFTISSLQPEDIATYYCQQYSKLPYTFGQGTKLEIK
4 |  |  |  |  |  |  | 1.86 | 0.000249 | 134000 | IL25Ab6 Fab (Fab, V domains shown) VH: QVQLVQSGAEVKKPGASVKVSCKASGYSFTGYTMNWVRQAPGQGLEWMGLINPDNGGTSYKQKFQGRVTMTVDKSISTAYMELSRLRSDDTAVYYCAREGYYGPSPFHHYAMDYWGQGTLVTVSS VL: DIQMTQSPSSLSASVGDRVTITCQASQDISNYLNWYQQKPGKAPKLLIYYTSTLHTGVPSRFSGSGSGTDYTFTISSLQPEDIATYYCQQYSKLPYTFGQGTKLEIK
5 | 0.232 | 0.222 | 0.312 | 0.225 | 0.435 | 0.043 |  |  |  | IL25Ab9 (antibody, V domains shown) VH: QVQLVQSGAEVKKPGASVKVSCKASGYSFTGYTMNWVRQAPGQGLEWMGLINPDNGGTSYKQKFQGRVTMTVDKSISTAYMELSRLRSDDTAVYYCAREGYYGPSPFHHYAMDYWGQGTLVTVSS VL: DIQMTQSPSSLSASVGDRVTITCQASQDISNYLNWYQQKPGKAPKLLIYYTSTLHTGVPSRFSGSGSGTDYTFTISSLQPEDIATYYCQQYSKLPYTFGQGTKLEIK
6 | 0.242 | 0.241 | 0.302 | 0.225 | 0.381 | 0.048 |  |  |  | IL25Ab6 (antibody, V domains shown) VH: QVQLVQSGAEVKKPGASVKVSCKASGYSFTGYTMNWVRQAPGQGLEWMGLINPDNGGTSYKQKFQGRVTMTVDKSISTAYMELSRLRSDDTAVYYCAREGYYGPSPFHHYAMDYWGQGTLVTVSS VL: DIQMTQSPSSLSASVGDRVTITCQASQDISNYLNWYQQKPGKAPKLLIYYTSTLHTGVPSRFSGSGSGTDYTFTISSLQPEDIATYYCQQYSKLPYTFGQGTKLEIK
7 |  |  |  |  |  |  | 1.78 | 0.000251 | 141000 | IL25Ab8 Fab (Fab, V domains shown, VH/VL assigned as for IL25Ab8) VH: QVQLVQSGAEVKKPGASVKVSCKASGYSFTGYTMNWVRQAHGKNLEWMGLINPDNGGTSHKQKFQGRVTMTVDKSISTAYMELSRLRSDDTAVYYCAREGYYGPSPFHHYAMDYWGQGTLVTVSS VL: DIQMTQSPSSLSASVGDRVTITCQASQDISNYLNWYQQKPDGTIKLLIYYTSTLHTGVPSRFSGSGSGTDYTLTISSLQPEDIATYYCQQYSKLPYTFGGGTKLEIK
8 | 0.332 | 0.295 | 0.404 | 0.199 | 1.04 | 0.041 |  |  |  | IL25Ab8 (antibody, IgG1, V domains shown) VH: QVQLVQSGAEVKKPGASVKVSCKASGYSFTGYTMNWVRQAHGKNLEWMGLINPDNGGTSHKQKFQGRVTMTVDKSISTAYMELSRLRSDDTAVYYCAREGYYGPSPFHHYAMDYWGQGTLVTVSS VL: DIQMTQSPSSLSASVGDRVTITCQASQDISNYLNWYQQKPDGTIKLLIYYTSTLHTGVPSRFSGSGSGTDYTLTISSLQPEDIATYYCQQYSKLPYTFGGGTKLEIK
9 | 0.258 | 0.239 | 0.318 | 0.187 | 0.953 | 0.037 |  |  |  | IL25Ab11 (antibody, IgG1, V domains shown) VH: QVQLVQSGAEVKKPGASVKVSCKASGYSFTGYTMNWVRQAHGKNLEWMGLINPDNGGTSHKQKFQGRVTMTVDKSISTAYMELSRLRSDDTAVYYCAREGYYGPSPFHHYAMDYWGQGTLVTVSS VL: DIQMTQSPSSLSASVGDRVTITCQASQDISNYLNWYQQKPDGTIKLLIYYTSTLHTGVPSRFSGSGSGTDYTLTISSLQPEDIATYYCQQYSKLPYTFGGGTKLEIK
10 |  |  |  |  |  |  | 1.89 | 0.000285 | 150000 | IL25Ab3 Fab (Fab, V domains shown, VH/VL assigned as for IL25Ab3; also called murine parental Fab) VH: EVQLQQSGPELVKPGGSVRISCKASGYSFTGYTMNWVKQSHGKNLEWIGLINPDNGGTSHKQRFMGKATLTVDKSSSTAYMELLSLTSEDSAVYYCAREGYYGPSPFHHYAMDYWGQGTSVTVSS VL: DIQMTQTTSSLSASLGDRVTISCSASQDISNYLNWYQQKPDGTIKLLIYYTSTLHSGVPSRFSGSGSGTDYSLTISNLEPEDIATYYCQQYSKLPYTFGGGTKLEIK
